Test results from patent US20180134786A1 (TOHOKU UNIVERSITY, published 2018).

T1: human podocalyxin expressed on cancer cells (human, UniProt O00592 23-558)
T1 construct: Podocalyxin on cancer cells; also called hPODXL; PODXL
T1 sequence: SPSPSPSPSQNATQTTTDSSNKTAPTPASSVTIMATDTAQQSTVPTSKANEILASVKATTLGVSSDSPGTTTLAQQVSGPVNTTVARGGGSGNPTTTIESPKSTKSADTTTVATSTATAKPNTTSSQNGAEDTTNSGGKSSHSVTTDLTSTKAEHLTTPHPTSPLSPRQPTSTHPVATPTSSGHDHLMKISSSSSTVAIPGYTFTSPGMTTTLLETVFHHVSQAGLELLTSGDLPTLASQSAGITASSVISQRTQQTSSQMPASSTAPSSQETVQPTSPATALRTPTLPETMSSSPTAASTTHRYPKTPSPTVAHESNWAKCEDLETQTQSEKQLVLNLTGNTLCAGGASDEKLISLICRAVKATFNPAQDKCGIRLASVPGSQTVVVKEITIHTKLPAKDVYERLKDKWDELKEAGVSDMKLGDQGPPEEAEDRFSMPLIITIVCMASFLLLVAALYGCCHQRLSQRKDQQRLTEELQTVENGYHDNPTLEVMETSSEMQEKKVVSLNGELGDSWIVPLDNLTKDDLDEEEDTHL


Tests used:
[1] = target: T1, human podocalyxin expressed on cancer …; experiment: flow cytometry on LN229/hPODXL, CHO culture supernatant
Method: A CRISPR/Cas plasmid of a glycosyltransferase (FUT-8) that transfers a core fucose was introduced into CHO-s cells (product of Thermo Scientific) and CHO-s-fut8-knock out cells were established. pCAG-hIgG1hG2b/PcMab-6HVH (G418)/pCAG-hIgCK/PcMab-6LVL (zeocin) (each 2.5 μg) or pCAG-hIgG1hG2b/PcMab-47HVH (G418)/pCAG-hIgCK/PcMab-47LVL (zeocin) (each 2.5 μg) were mixed and transfected into 1×10⁵ CHO-s/fut8-knock out cells (corresponding to 1 well of a 6-well plate) by the method of Lipofectamin LTX. After 24 hours, selection of transfected cells was started on a medium containing 500 μg/mL of Zeocin and 1 mg/mL of G418. The reactivity of the culture supernatant of the selected cells with the LN229 cells having therein forcibly expressed podocalyxin (LN229/hPODXL) was confirmed by flow cytometry.

[2] = target: T1, human podocalyxin expressed on cancer …; experiment: immunohistochemistry on breast cancer tissue array, 5 µg/mL
Method: Various paraffin sections were deparaffined in xylene and ethanol solutions. The resulting sections were subjected to antigen activation in an autoclave by using a citrate buffer having pH 6.0 (product of Dako). Endogenous peroxidase was inactivated with 3% H₂O₂. After blocking with SuperBlock (product of Thermo Fisher) at room temperature for 10 minutes, the primary antibody was reacted at a concentration of from 5 to 10 μg/mL at room temperature for one hour. After amplification using a LSAB kit (product of Dako), LSAB2 (product of Dako), or Envision+ (product of Dako), color was developed using DAB (product of Dako).
Podocalyxin is known to be expressed highly in breast cancer. PcMab-6 and an anti-podocalyxin antibody (polyclonal antibody: product of R&D) were therefore reacted with a breast cancer tissue array (product of US Biomax) at a concentration of 5 μg/mL. […] Similarly, a difference in reactivity with breast cancer between PcMab-6 and PcMab-47 was investigated. […] It has therefore been confirmed that also in Immunohistochemistry, PcMab-6 is CasMab.

| binding result [1] | binding result [2] | Binder |
| --- | --- | --- |
| binds |  | mouse-human chimeric PcMab-47 antibody (chPcMab-47) (antibody, VH/VL of PcMab-47 with human IgG1 CH1-hinge-CH2-CH3 and human kappa CL, expressed in CHO cells; The entries may include the signal peptide; also called chPcMa47) heavy: not shown light: QIVLTQSPAIMSASLGERVTMYCTASSSVSSSYLHWYQQKPGSSPKLWIYGTSNLASGVPARFSGSGSGTSYSLTISSMEAEDAATYYCHQYHRPPLTFGAGTKLELKRTSTVAAPSVFIFPPSDEQLKSGTASVVCLLNNFYPREAKVQWKVDNALQSGNSQESVTEQDSKDSTYSLSSTLTLSKADYEKHKVYACEVTHQGLSSPVTKSFNRGEC |
|  | binds | PcMab-47 (antibody, mouse IgG1, kappa, Mouse monoclonal antibody; also called cancer-nonspecific anti-podocalyxin antibody) heavy: QVQLQQSAAELARPGASVKMSCKASGYTFTNYTIHWVKQRPGQGLEWIGFINPTSGYSDFNQKFKAKTTLTADKSSSTAHMQLTSLTSEDSAVYYCARLFAPAYWGQGTLVTVSAAKTTPPSVYPLAPGSAAQTNSMVTLGCLVKGYFPEPVTVTWNSGSLSSGVHTFPAVLQSDLYTLSSSVTVPSSTWPSETVTCNVAHPASSTKVDKKIVPRDCGCKPCICTVPEVSSVFIFPPKPKDVLTITLTPKVTCVVVDISKDDPEVQFSWFVDDVEVHTAQTQPREEQFNSTFRSVSELPIMHQDWLNGKEFKCRVNSAAFPAPIEKTISKTKGRPKAPQVYTIPPPKEQMAKDKVSLTCMITDFFPEDITVEWQWNGQPAENYKNTQPIMDTDGSYFVYSKLNVQKSNWEAGNTFTCSVLHEGLHNHHTEKSLSHSPGK light: QIVLTQSPAIMSASLGERVTMYCTASSSVSSSYLHWYQQKPGSSPKLWIYGTSNLASGVPARFSGSGSGTSYSLTISSMEAEDAATYYCHQYHRPPLTFGAGTKLELKRADAAPTVSIFPPSSEQLTSGGASVVCFLNNFYPKDINVKWKIDGSERQNGVLNSWTDQDSKDSTYSMSSTLTLTKDEYERHNSYTCEATHKTSTSPIVKSFNRNEC |
